Results from PMC12783686, “β-catenin condensation facilitates clustering of the cadherin/catenin complex and formation of nascent cell-cell junctions” (Nature Communications, 2025).

Biological target: T1, mCherry-α-catenin (UniProt P26231 1-906)
T1 construct: Monomeric pool from gel filtration; source: E. coli CK600K or BL21-DE3 Star, purified (Glutathione Sepharose, TEV protease cleavage, gel filtration; the monomeric pool was collected); not shown: GST (from the vector pGEX-2T); mCherry, N-terminal, kept
T1 sequence (looked up): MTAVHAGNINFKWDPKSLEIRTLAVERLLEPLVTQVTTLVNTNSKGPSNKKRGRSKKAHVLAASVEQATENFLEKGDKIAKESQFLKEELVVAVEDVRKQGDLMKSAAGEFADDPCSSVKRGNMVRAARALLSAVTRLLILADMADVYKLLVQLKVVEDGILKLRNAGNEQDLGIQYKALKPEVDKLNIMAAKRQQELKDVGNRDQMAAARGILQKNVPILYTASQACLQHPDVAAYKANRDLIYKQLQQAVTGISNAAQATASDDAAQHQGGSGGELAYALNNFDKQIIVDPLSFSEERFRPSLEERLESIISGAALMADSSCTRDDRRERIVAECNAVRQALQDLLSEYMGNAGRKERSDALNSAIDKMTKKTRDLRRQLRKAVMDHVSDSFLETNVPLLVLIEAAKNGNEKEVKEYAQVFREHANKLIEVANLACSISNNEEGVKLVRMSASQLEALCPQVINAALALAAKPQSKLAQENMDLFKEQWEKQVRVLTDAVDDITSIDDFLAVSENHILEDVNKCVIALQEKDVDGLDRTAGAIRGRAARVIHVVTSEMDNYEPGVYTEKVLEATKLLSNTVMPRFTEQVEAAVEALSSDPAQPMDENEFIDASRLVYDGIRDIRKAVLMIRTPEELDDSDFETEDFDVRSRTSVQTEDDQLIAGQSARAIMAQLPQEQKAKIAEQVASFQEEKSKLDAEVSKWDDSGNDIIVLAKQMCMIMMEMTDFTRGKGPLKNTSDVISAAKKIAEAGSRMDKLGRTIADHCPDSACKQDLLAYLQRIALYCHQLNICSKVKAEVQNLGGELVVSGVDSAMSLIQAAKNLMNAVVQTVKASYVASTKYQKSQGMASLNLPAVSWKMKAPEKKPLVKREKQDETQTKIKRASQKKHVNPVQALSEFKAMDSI
Experiment: droplet co-partition assay (confocal microscopy); purified fluorescent proteins mixed at equimolar 1 μM with mEGFP-β-catenin (Wt or IDRs*) in droplet formation buffer (50 mM Tris-HCl pH 7.5, 125 mM NaCl, 10% glycerol, 1 mM DTT); droplets induced with 10% PEG-8000; fluorescence inside β-catenin droplets
Details: both partners purified

binding result: binds
B1: mEGFP-β-catenin^Wt (natural protein, UniProt P35222 1-781, looked up)
chain: MATQADLMELDMAMEPDRKAAVSHWQQQSYLDSGIHSGATTTAPSLSGKGNPEEEDVDTSQVLYEWEQGFSQSFTQEQVADIDGQYAMTRAQRVRAAMFPETLDEGMQIPSTQFDAAHPTNVQRLAEPSQMLKHAVVNLINYQDDAELATRAIPELTKLLNDEDQVVVNKAAVMVHQLSKKEASRHAIMRSPQMVSAIVRTMQNTNDVETARCTAGTLHNLSHHREGLLAIFKSGGIPALVKMLGSPVDSVLFYAITTLHNLLLHQEGAKMAVRLAGGLQKMVALLNKTNVKFLAITTDCLQILAYGNQESKLIILASGGPQALVNIMRTYTYEKLLWTTSRVLKVLSVCSSNKPAIVEAGGMQALGLHLTDPSQRLVQNCLWTLRNLSDAATKQEGMEGLLGTLVQLLGSDDINVVTCAAGILSNLTCNNYKNKMMVCQVGGIEALVRTVLRAGDREDITEPAICALRHLTSRHQEAEMAQNAVRLHYGLPVVVKLLHPPSHWPLIKATVGLIRNLALCPANHAPLREQGAIPRLVQLLVRAHQDTQRRTSMGGTQQQFVEGVRMEEIVEGCTGALHILARDVHNRIVIRGLNTIPLFVQLLYSPIENIQRVAAGVLCELAQDKEAAEAIEAEGATAPLTELLHSRNEGVATYAAAVLFRMSEDKPQDYKKRLSVELTSSLFRTEPMAWNETADLGLDIGAQGEPLGYRQDDPSYRSFHSGGYGQDALGMDPMMEHEMGGHHPGADYPVDGLPDLGHAQDLMDGLPPGDSNQLAWFDTDL
notes: also called mEGFP-β-cat^Wt; source: E. coli CK600K or BL21-DE3 Star, purified (Glutathione Sepharose, TEV protease cleavage, gel filtration); not shown: GST (from the vector pGEX-2T); mEGFP, N-terminal, kept
